Experimental data published in US20100092522A1 (published 2010).

What was measured:
[1] = molecular target: T1, HLA-A0201 molecule on T2 cells (TAP-, HLA-A0201+) (human); assay: T2 thermostabilization assay, flow cytometry of surface HLA-A2 (BB7.2), fluorescence index; native peptide as reference
T1 construct: MHC class I molecule without a defined peptide; also called HLA-A2.1
Description: (§1) T2 cells (TAP⁻, HLA-A0201⁺) were incubated overnight at 27° C. at a concentration of 1×10⁶ cells/ml in FCS-free RPMI medium supplemented with 5 μg/ml human β₂m (Sigma, St Louis, Mo.) in the absence (negative control) or presence of either a positive reference tyrosinase peptide or test peptides at various final concentrations (50, 10, 1, and 0.1 micrograms (μg)/ml). Following a 4-hour incubation with 5 μg/ml brefeldin A (Sigma), T2 cells were labeled for 30 minutes at 4° C. with a saturating concentration of anti-HLA-A2.1 (BB7.2) mAb, then washed twice. Cells were then incubated for 30 minutes, 4° C. with a saturating concentration of FITC-conjugated goat IgG F(ab′)2 anti-mouse Ig (Caltag, San Francisco, Calif.), washed twice, fixed in PBS/1% paraformaldehyde and analyzed using a FACS Calibur® cytofluorometer (Becton Dickinson, Immunocytometry Systems, San Jose, Calif.).
(§2) Following initial evaluation of peptide binding at time 0, cells were washed in RPMI complete medium to remove free peptides and incubated in the continuous presence of 0.5 μg/ml brefeldin-A for 2, 4, 6 or 8 hours.

[2] = molecular target: T1, HLA-A0201 molecule on T2 cells (TAP-, …); assay: T2 stabilization assay of Example 1, as told in the description
Description: as §1, §2

[3] = molecular target: T1, HLA-A0201 molecule on T2 cells (TAP-, …); assay: T2 thermostabilization assay, flow cytometry of surface HLA-A2 (BB7.2), fluorescence index
Description: as §1, §2

[4] = molecular target: T2, HLA-A0301 molecule on Raji HLA-A0301 cells (human); assay: thermostabilization assay on Raji HLA-A0301 cells, fluorescence index
T2 construct: It says only 'thermostabilization assays using; Raji HLA-A0301 cells'

Binder	binding result [4]	also measured
ALLPAVPSL [WT1 C (native)]	–	binding result [1]: binds
YLLPAVPSL [WT1 C1 (analogue)]	–	binding result [2]: binds
NLGATLKGV [WT1 D (native)]	–	binding result [1]: binds
YLGATLKGV [WT1 D1 (analogue)]	–	binding result [3]: binds
KLSHLQMHSR [A3 WT1 D (native)]	binds	–
RMFPNAPYL (also called WT1A (126-134)) [WT1 A (native)]	–	binding result [1]: binds
YMFPNAPYL [WT1 A1 (analogue)]	–	binding result [3]: binds
QMNLGATLK [A3 WT1 B (native)]	binds	–
QMYLGVTLK [A3 WT1 B3 (analogue)]	binds	–
QMYLGATLK [A3 WT1 B1 (analogue)]	binds	–
NMHQRNMTK [A3 WT1 A (native)]	binds	–
SLGEQQYSV [WT1 B (native)]	–	binding result [1]: binds
YLGEQQYSV [WT1 B1 (analogue)]	–	binding result [3]: binds
FMCAYPGCNK [A3 WT1 C (native)]	binds	–
FMYAYPGCNK [A3 WT1 C1 (analogue)]	binds	–
FMCAYPFCNK [A3 WT1 C2 (analogue)]	binds	–

Second part, led by results:

binding result [4]	Binder	also measured
binds	KLYHLQMHSK [A3 WT1 D3 (analogue)]	–
binds	KLSHLQMHSK [A3 WT1 D2 (analogue)]	–
binds	KLYHLQMHSR [A3 WT1 D1 (analogue)]	–
binds	QMNLGVTLK [A3 WT1 B2 (analogue)]	–
binds	NMYQRVMTK [A3 WT1 A3 (analogue)]	–
binds	NMHQRVMTK [A3 WT1 A2 (analogue)]	–
binds	NMYQRNMTK [A3 WT1 A1 (analogue)]	–
binds	FMYAYPFCNK [A3 WT1 C3 (analogue)]	–
